From PMC9182292 come the findings set out here.

This assay has as its target human 6His-14-3-3ζ (human) (UniProt P63104). Description: pull-down; 6His-14-3-3ζ (0.1 mg) immobilised on Ni-NTA resin, 300 μL lysate of HEK293 cells expressing SNAP-TM reporters overnight at 4°C, 1% Triton X-100 in PBS with 25 mM imidazole; blot for the SNAP-tag, amount pulled down normalised to CT_(598-910), CT_(731-910) or untreated control; in some samples cells were treated before lysis with staurosporine (three hours) or more specific kinase inhibitors.
Chain of UniProt P63104 (P63104 whole entry): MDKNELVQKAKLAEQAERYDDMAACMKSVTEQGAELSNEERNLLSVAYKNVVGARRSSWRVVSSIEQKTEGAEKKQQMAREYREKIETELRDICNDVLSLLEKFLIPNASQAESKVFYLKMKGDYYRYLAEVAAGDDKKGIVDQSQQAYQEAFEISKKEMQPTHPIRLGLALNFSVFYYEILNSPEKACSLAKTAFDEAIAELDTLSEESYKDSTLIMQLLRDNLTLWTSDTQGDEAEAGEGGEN

Turning to “SNAP-TM-HCN1CT reporter with loss of residues 803-910 (from UniProt O88704 598-802) (domain or fragment)”, the fold of reporter pulled down compared to CT (598-910) is 0.2 fold. The same measure, in the same setting: the figure for “SNAP-TM-HCN1CT reporter serially truncated to also lack the region containing peptide B (residues 790-820) (from UniProt O88704 598-790) (domain or fragment)” is 0.23 fold. For “SNAP-TM-HCN1CT reporter CT_(731-910) (from UniProt O88704 731-910) (domain or fragment)”, the fold of reporter pulled down compared to CT (598-910) is 1.39 fold, the fold of reporter pulled down from cells treated with the PKC inhibitor bisindolylmaleimide I compared to untreated control amounted to 0.61 fold, the fold of reporter pulled down from cells treated with the p38MAPK inhibitor PD 169316 compared to untreated control stood at 0.61 fold and the fold of reporter pulled down from staurosporine-treated cells compared to untreated control amounted to 0.26 fold. As for “SNAP-TM-HCN1CT reporter CT_(731-910; Δ804–814; Δ861–871) (from UniProt O88704 731-910) (domain or fragment)”, the fold of reporter pulled down compared to CT (731-910) amounted to 0.26 fold. “SNAP-TM-HCN1CT reporter lacking the distal 30 amino acid block with the TRIP8b-tripeptide binding site (from UniProt O88704 598-880) (domain or fragment)”: the fold of reporter pulled down compared to CT (598-910) amounted to 1.18 fold.

With “SNAP-TM-HCN1CT reporter serially truncated to lack the region containing peptide C (amino acids 850-880) (from UniProt O88704 598-850) (domain or fragment)”, the fold of reporter pulled down compared to CT (598-910) is 0.61 fold. For the substance “SNAP-TM-HCN1CT reporter CT_(731-910; S810A; S867A) (from UniProt O88704 731-910) (domain or fragment)”, the fold of reporter pulled down compared to CT (731-910) was 0.33 fold.
